Data as given in PMC5766566, “Characterization of human small heat shock protein HSPB1 α-crystallin domain localized mutants associated with hereditary motor neuron diseases” (Scientific Reports, 2018).
Residue numbers refer to the chain shown, from its start. Names may count otherwise.

Legend:
Conditions in all cases: both partners purified
[1] = molecular target: T1, human small heat shock protein HSPB1, wild type (human, UniProt P04792 1-205); assay: cross-linking; disulfide cross-linking of mixtures: 50 μM of each protein in 50 mM sodium phosphate pH 7.5, 100 mM NaCl, 5 mM DTT overnight at 37 °C, then dialysis without DTT at 20 °C for 24 h; non-reducing SDS-PAGE
T1 construct: HSPB1 (HSP27), human; six Trp); Two constructs and two purification routes were used and are said to give indistinguishable proteins; Polydisperse oligomer, on average 23 subunits by SEC-SAXS; also called HSP27; WT HSPB1; source: recombinant (pET23b or pETHSUK construct), expressed as described earlier; purified (ammonium sulfate fractionation, anion-exchange, SEC; or subtractive IMAC, …

human HSPB1 R127W mutant [2] = molecular target: T2, human HSPB1 R127W mutant (human, UniProt P04792 1-205, R127W); assay: as above
T2 construct: HSPB1 (HSP27), human, with the autosomal dominant Charcot-Marie-Tooth mutation R127W; Disease mutation found in patients; Probably the whole protein; SUMO carrier probably removed (subtractive IMAC); source: recombinant (pET23b or pETHSUK construct), expressed as described earlier

human HSPB1 S135F mutant [3] = molecular target: T3, human HSPB1 S135F mutant (human, UniProt P04792 1-205, S135F); assay: as above
T3 construct: HSPB1 (HSP27), human, with the autosomal dominant Charcot-Marie-Tooth mutation S135F; Disease mutation found in patients; Probably the whole protein; SUMO carrier probably removed (subtractive IMAC); The abstract once prints R135F for this mutant; source: recombinant (pET23b or pETHSUK construct), expressed as described earlier; purified (ammonium sulfate fractionation, anion-exchange, SEC; or …)

human HSPB1 R127W mutant [4] = molecular target: T2, human HSPB1 R127W mutant; assay: SEC; equimolar mixture, 30 μM per monomer of each sHSP in buffer S, preincubated at 4 °C for 1 hr, then Superdex 200 HR
human HSPB1 S135F mutant [5] = molecular target: T3, human HSPB1 S135F mutant; assay: as above
[6] = molecular target: T1, human small heat shock protein HSPB1, …; assay: SEC; equimolar mixture, 30 μM per monomer of each sHSP in buffer S, preincubated at 42 °C for 1 hr, then Superdex 200 HR

Measured: binding result

T2 sequence (P04792 whole entry R127W): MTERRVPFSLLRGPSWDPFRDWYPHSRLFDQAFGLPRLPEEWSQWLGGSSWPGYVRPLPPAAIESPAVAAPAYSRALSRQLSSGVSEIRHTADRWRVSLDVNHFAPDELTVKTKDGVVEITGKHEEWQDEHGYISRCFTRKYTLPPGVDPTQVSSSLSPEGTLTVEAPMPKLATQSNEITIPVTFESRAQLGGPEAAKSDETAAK
T3 sequence (P04792 whole entry S135F): as the sequence (P04792 whole entry R127W) above, with W127R, S135F counted along it
T1 sequence (P04792 whole entry): as the sequence (P04792 whole entry R127W) above, with W127R counted along it

B1: human HSPB6 C46S/E116C double mutant (natural protein, UniProt O14558 1-160, looked up)
chain: MEIPVPVQPSWLRRASAPLPGLSAPGRLFDQRFGEGLLEAELAALSPTTLAPYYLRAPSVALPVAQVPTDPGHFSVLLDVKHFSPEEIAVKVVGEHVEVHARHEERPDEHGFVARCFHRRYRLPPGVDPAAVTSALSPEGVLSIQAAPASAQAPPPAAAK
notes: HSPB6 (HSP20), human, double mutant C46S/E116C made for disulfide cross-linking
binds: [1] | human HSPB1 R127W mutant [2] | human HSPB1 S135F mutant [3]

B2: human HSPB6, wild type (natural protein, UniProt O14558 1-160, looked up)
chain: B1 chain with S46C, C116E
notes: HSPB6 (HSP20), human small heat shock protein; also called HSP20; WT HSPB6
binds: human HSPB1 R127W mutant [4] | human HSPB1 S135F mutant [5] | [6]
